Tested on: coxsackievirus B3 (CVB3-GFP)
Format: cell-based
Conditions: HeLa cells, replicate R1; for Percent Infected R1: GFP-positive cells within RFP-positive gate

B1: TRIM38: human RING type E3 ligase expressed from lentiviral vector (protein, UniProt O00635 1-465, looked up)
E3 ubiquitin-protein ligase …: MASTTSTKKMMEEATCSICLSLMTNPVSINCGHSYCHLCITDFFKNPSQKQLRQETFCCPQCRAPFHMDSLRPNKQLGSLIEALKETDQEMSCEEHGEQFHLFCEDEGQLICWRCERAPQHKGHTTALVEDVCQGYKEKLQKAVTKLKQLEDRCTEQKLSTAMRITKWKEKVQIQRQKIRSDFKNLQCFLHEEEKSYLWRLEKEEQQTLSRLRDYEAGLGLKSNELKSHILELEEKCQGSAQKLLQNVNDTLSRSWAVKLETSEAVSLELHTMCNVSKLYFDVKKMLRSHQVSVTLDPDTAHHELILSEDRRQVTRGYTQENQDTSSRRFTAFPCVLGCEGFTSGRRYFEVDVGEGTGWDLGVCMENVQRGTGMKQEPQSGFWTLRLCKKKGYVALTSPPTSLHLHEQPLLVGIFLDYEAGVVSFYNGNTGCHIFTFPKASFSDTLRPYFQVYQYSPLFLPPPGD
modifications: lentiviral expression
notes: human RING type E3 ligase expressed from lentiviral vector
  Percent Infected R1: 60.7%
  Z score R1: −0.355

B2: TRIM40: human RING type E3 ligase expressed from lentiviral vector (protein, UniProt Q6P9F5 1-258, looked up)
E3 ubiquitin ligase TRIM40: MIPLQKDNQEEGVCPICQESLKEAVSTNCGHLFCRVCLTQHVEKASASGVFCCPLCRKPCSEEVLGTGYICPNHQKRVCRFCEESRLLLCVECLVSPEHMSHHELTIENALSHYKERLNRRSRKLRKDIAELQRLKAQQEKKLQALQFQVDHGNHRLEAGPESQHQTREQLGALPQQWLGQLEHMPAEAARILDISRAVTQLRSLVIDLERTAKELDTNTLKNAGDLLNRSAPQKLEVIYPQLEKGVSELLLQPPQKL
modifications: lentiviral expression
notes: as for B1
  Percent Infected R1: 62.8%
  Z score R1: −0.328

B3: TRIM37: human RING type E3 ligase expressed from lentiviral vector (protein, UniProt O94972 1-964, looked up)
E3 ubiquitin-protein ligase …: MDEQSVESIAEVFRCFICMEKLRDARLCPHCSKLCCFSCIRRWLTEQRAQCPHCRAPLQLRELVNCRWAEEVTQQLDTLQLCSLTKHEENEKDKCENHHEKLSVFCWTCKKCICHQCALWGGMHGGHTFKPLAEIYEQHVTKVNEEVAKLRRRLMELISLVQEVERNVEAVRNAKDERVREIRNAVEMMIARLDTQLKNKLITLMGQKTSLTQETELLESLLQEVEHQLRSCSKSELISKSSEILMMFQQVHRKPMASFVTTPVPPDFTSELVPSYDSATFVLENFSTLRQRADPVYSPPLQVSGLCWRLKVYPDGNGVVRGYYLSVFLELSAGLPETSKYEYRVEMVHQSCNDPTKNIIREFASDFEVGECWGYNRFFRLDLLANEGYLNPQNDTVILRFQVRSPTFFQKSRDQHWYITQLEAAQTSYIQQINNLKERLTIELSRTQKSRDLSPPDNHLSPQNDDALETRAKKSACSDMLLEGGPTTASVREAKEDEEDEEKIQNEDYHHELSDGDLDLDLVYEDEVNQLDGSSSSASSTATSNTEENDIDEETMSGENDVEYNNMELEEGELMEDAAAAGPAGSSHGYVGSSSRISRRTHLCSAATSSLLDIDPLILIHLLDLKDRSSIENLWGLQPRPPASLLQPTASYSRKDKDQRKQQAMWRVPSDLKMLKRLKTQMAEVRCMKTDVKNTLSEIKSSSAASGDMQTSLFSADQAALAACGTENSGRLQDLGMELLAKSSVANCYIRNSTNKKSNSPKPARSSVAGSLSLRRAVDPGENSRSKGDCQTLSEGSPGSSQSGSRHSSPRALIHGSIGDILPKTEDRQCKALDSDAVVVAVFSGLPAVEKRRKMVTLGANAKGGHLEGLQMTDLENNSETGELQPVLPEGASAAPEEGMSSDSDIECDTENEEQEEHTSVGGFHDSFMVMTQPPDEDTHSSFPDGEQIGPEDLSFNTDENSGR
modifications: lentiviral expression
notes: as for B1
  Percent Infected R1: 58.8%
  Z score R1: −0.379

B4: TRIM35: human RING type E3 ligase expressed from lentiviral vector (protein, UniProt Q9UPQ4 1-493, looked up)
E3 ubiquitin-protein ligase …: MERSPDVSPGPSRSFKEELLCAVCYDPFRDAVTLRCGHNFCRGCVSRCWEVQVSPTCPVCKDRASPADLRTNHTLNNLVEKLLREEAEGARWTSYRFSRVCRLHRGQLSLFCLEDKELLCCSCQADPRHQGHRVQPVKDTAHDFRAKCRNMEHALREKAKAFWAMRRSYEAIAKHNQVEAAWLEGRIRQEFDKLREFLRVEEQAILDAMAEETRQKQLLADEKMKQLTEETEVLAHEIERLQMEMKEDDVSFLMKHKSRKRRLFCTMEPEPVQPGMLIDVCKYLGSLQYRVWKKMLASVESVPFSFDPNTAAGWLSVSDDLTSVTNHGYRVQVENPERFSSAPCLLGSRVFSQGSHAWEVALGGLQSWRVGVVRVRQDSGAEGHSHSCYHDTRSGFWYVCRTQGVEGDHCVTSDPATSPLVLAIPRRLRVELECEEGELSFYDAERHCHLYTFHARFGEVRPYFYLGGARGAGPPEPLRICPLHISVKEELDG
  Percent Infected R1: 66.3%
  Z score R1: −0.284

B5: TRIM43: human RING type E3 ligase expressed from lentiviral vector (protein, UniProt Q96BQ3 1-446, looked up)
Tripartite motif-containing …: MDSDFSHAFQKELTCVICLNYLVDPVTICCGHSFCRPCLCLSWEEAQSPANCPACREPSPKMDFKTNILLKNLVTIARKASLWQFLSSEKQICGTHRQTKKMFCDMDKSLLCLLCSNSQEHGAHKHHPIEEAAEEHREKLLKQMRILWKKIQENQRNLYEEGRTAFLWRGNVVLRAQMIRNEYRKLHPVLHKEEKQHLERLNKEYQEIFQQLQRSWVKMDQKSKHLKEMYQELMEMCHKPDVELLQDLGDIVARSESVLLHMPQPVNPELTAGPITGLVYRLNRFRVEISFHFEVTNHNIRLFEDVRSWMFRRGPLNSDRSDYFAAWGARVFSFGKHYWELDVDNSCDWALGVCNNSWIRKNSTMVNSEDIFLLLCLKVDNHFNLLTTSPVFPHYIEKPLGRVGVFLDFESGSVSFLNVTKSSLIWSYPAGSLTFPVRPFFYTGHR
  Percent Infected R1: 61.4%
  Z score R1: −0.346

B6: TRIM39: human RING type E3 ligase expressed from lentiviral vector (protein, UniProt Q9HCM9 1-518, looked up)
E3 ubiquitin-protein ligase …: MAETSLLEAGASAASTAAALENLQVEASCSVCLEYLKEPVIIECGHNFCKACITRWWEDLERDFPCPVCRKTSRYRSLRPNRQLGSMVEIAKQLQAVKRKIRDESLCPQHHEALSLFCYEDQEAVCLICAISHTHRAHTVVPLDDATQEYKEKLQKCLEPLEQKLQEITRCKSSEEKKPGELKRLVESRRQQILREFEELHRRLDEEQQVLLSRLEEEEQDILQRLRENAAHLGDKRRDLAHLAAEVEGKCLQSGFEMLKDVKSTLEKNIPRKFGGSLSTICPRDHKALLGLVKEINRCEKVKTMEVTSVSIELEKNFSNFPRQYFALRKILKQLIADVTLDPETAHPNLVLSEDRKSVKFVETRLRDLPDTPRRFTFYPCVLATEGFTSGRHYWEVEVGDKTHWAVGVCRDSVSRKGELTPLPETGYWRVRLWNGDKYAATTTPFTPLHIKVKPKRVGIFLDYEAGTLSFYNVTDRSHIYTFTDTFTEKLWPLFYPGIRAGRKNAAPLTIRPPTDWE
  Percent Infected R1: 58.6%
  Z score R1: −0.382

B7: TRIM44: human RING type E3 ligase expressed from lentiviral vector (protein, UniProt Q96DX7 1-344, looked up)
Tripartite motif-containing …: MASGVGAAFEELPHDGTCDECEPDEAPGAEEVCRECGFCYCRRHAEAHRQKFLSHHLAEYVHGSQAWTPPADGEGAGKEEAEVKVEQEREIESEAGEESESEEESESEEESETEEESEDESDEESEEDSEEEMEDEQESEAEEDNQEEGESEAEGETEAESEFDPEIEMEAERVAKRKCPDHGLDLSTYCQEDRQLICVLCPVIGAHQGHQLSTLDEAFEELRSKDSGGLKAAMIELVERLKFKSSDPKVTRDQMKMFIQQEFKKVQKVIADEEQKALHLVDIQEAMATAHVTEILADIQSHMDRLMTQMAQAKEQLDTSNESAEPKAEGDEEGPSGASEEEDT
modifications: lentiviral expression
notes: as for B1
  Percent Infected R1: 61.7%
  Z score R1: −0.342

From patent publication US12104181B2, “Compositions and methods for treating viral infections targeting TRIM7” (THE BOARD OF REGENTS OF THE UNIVERSITY OF TEXAS SYSTEM, priority 2021, dated 2024)
